Substrate in the data set: NCCNCCNCCN
Nature of the data set: not read.

B1: Thialysine N-epsilon-acetyltransferase (Homo sapiens) (protein)
chain: MASVRIREAKEGDCGDILRLIRELAEFEKLSDQVKISEEALRADGFGDNPFYHCLVAEILPAPGKLLGPCVVGYGIYYFIYSTWKGRTIYLEDIYVMPEYRGQGIGSKIIKKVAEVALDKGCSQFRLAVLDWNQRAMDLYKALGAQDLTEAEGWHFFCFQGEATRKLAGK
Take B1: the Km is 2500 µM and the Vmax came out at 3.96 µmol/min/mg.

What is called Km is the substrate concentration at which the rate is half of its maximum. In general, Vmax refers to the rate approached at saturating substrate.

The values are drawn from ChEMBL document CHEMBL3526099, “Metabolism of triethylenetetramine and 1,12-diamino-3,6,9-triazadodecane by the spermidine/spermine-N(1)-acetyltransferase and thialysine acetyltransferase” (Drug Metab Dispos, 2013).
